# Assay results taken from the supplement of paper PMC9112550, “Optimization of the antimicrobial peptide Bac7 by deep mutational scanning” (BMC Biology, 2022).
# System: Escherichia coli TOP10
# Assay: shrunken log2 fold change of peptide-encoding DNA abundance (4.5 h post-induction vs induction); higher = less antimicrobial activity (less host growth inhibition)
# Conditions: time post-induction: 4.5 h; library: site-saturation at positions 5, 18, 19, 20
# 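Further: peptides expressed intracellularly from a pBAD plasmid library in pooled LB shake-flask culture, induced with 0.3% L-arabinose, DNA abundance read by NGS, three biological replicates, DESeq2 with apeglm shrinkage.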
row,Sequence,shrunken log2 fold change
1,RRIRARPPRLPRPRPRPGRVPRP,0.612
2,RRIRQRPPRLPRPRPRPSELPRP,-0.159
3,RRIRCRPPRLPRPRPRPIWTPRP,-0.0919
4,RRIRVRPPRLPRPRPRPFNFPRP,-1.01
5,RRIRYRPPRLPRPRPRPHNDPRP,-0.692
6,RRIRKRPPRLPRPRPRPGYMPRP,-0.144
7,RRIRARPPRLPRPRPRPIQNPRP,0.376
8,RRIRQRPPRLPRPRPRPHVCPRP,-0.0223
9,RRIRWRPPRLPRPRPRPFLYPRP,-0.0978
10,RRIRGRPPRLPRPRPRPSYQPRP,-0.0215
11,RRIRSRPPRLPRPRPRPRVSPRP,-0.0241
12,RRIRMRPPRLPRPRPRPQQCPRP,0.143
13,RRIRDRPPRLPRPRPRPGFNPRP,0.125
14,RRIRTRPPRLPRPRPRPFCYPRP,-0.24
15,RRIRNRPPRLPRPRPRPTKIPRP,-0.245
16,RRIRIRPPRLPRPRPRPTCVPRP,0.00176
17,RRIRHRPPRLPRPRPRPKIFPRP,-0.0798
18,RRIRYRPPRLPRPRPRPAYEPRP,-0.184
19,RRIRIRPPRLPRPRPRPLSYPRP,-0.528
20,RRIRVRPPRLPRPRPRPKHTPRP,-0.177
21,RRIRERPPRLPRPRPRPSVFPRP,-0.0831
22,RRIRQRPPRLPRPRPRPICTPRP,-0.0531
23,RRIRTRPPRLPRPRPRPNVEPRP,-0.00865
24,RRIRFRPPRLPRPRPRPNMFPRP,-0.259
25,RRIRYRPPRLPRPRPRPNEIPRP,-0.807

row,Sequence,shrunken log2 fold change
1,RRIRCRPPRLPRPRPRPTVVPRP,-0.127
2,RRIRTRPPRLPRPRPRPGNAPRP,-0.0554
3,RRIRVRPPRLPRPRPRPEHSPRP,0.115
4,RRIRPRPPRLPRPRPRPEHVPRP,0.0556
5,RRIRVRPPRLPRPRPRPIMEPRP,0.0384
6,RRIRIRPPRLPRPRPRPVIGPRP,-0.727
7,RRIRTRPPRLPRPRPRPKDTPRP,-0.076
8,RRIRVRPPRLPRPRPRPKMRPRP,0.329
9,RRIRIRPPRLPRPRPRPWKNPRP,-0.235
10,RRIRSRPPRLPRPRPRPSMPPRP,-0.706
11,RRIRVRPPRLPRPRPRPNVTPRP,-0.554
12,RRIRTRPPRLPRPRPRPCNHPRP,-0.214
13,RRIRHRPPRLPRPRPRPYTAPRP,-0.735
14,RRIRDRPPRLPRPRPRPIADPRP,0.163
15,RRIRFRPPRLPRPRPRPTCAPRP,0.564
16,RRIRVRPPRLPRPRPRPWSKPRP,-0.2
17,RRIRKRPPRLPRPRPRPWVSPRP,0.345
18,RRIRCRPPRLPRPRPRPWEMPRP,-0.0816
19,RRIRTRPPRLPRPRPRPLVGPRP,0.131
20,RRIRHRPPRLPRPRPRPAKHPRP,-0.0767
21,RRIRGRPPRLPRPRPRPAGMPRP,0.737
22,RRIRRRPPRLPRPRPRPSIYPRP,-0.449
23,RRIRQRPPRLPRPRPRPVAQPRP,0.24
24,RRIRSRPPRLPRPRPRPFCYPRP,-0.528
25,RRIRLRPPRLPRPRPRPSSTPRP,-0.278

row,Sequence,shrunken log2 fold change
1,RRIRLRPPRLPRPRPRPTKVPRP,-0.0842
2,RRIRDRPPRLPRPRPRPMSMPRP,0.017
3,RRIRLRPPRLPRPRPRPSAKPRP,-0.0639
4,RRIRGRPPRLPRPRPRPFYPPRP,-0.62
5,RRIRRRPPRLPRPRPRPVFLPRP,0.0173
6,RRIRVRPPRLPRPRPRPISWPRP,0.18
7,RRIRSRPPRLPRPRPRPQMQPRP,0.00783
8,RRIRGRPPRLPRPRPRPWECPRP,-0.00149
9,RRIRFRPPRLPRPRPRPPDDPRP,0.371
10,RRIRQRPPRLPRPRPRPETRPRP,-0.0113
11,RRIRCRPPRLPRPRPRPIPIPRP,-0.0907
12,RRIRTRPPRLPRPRPRPCPWPRP,-0.21
13,RRIRFRPPRLPRPRPRPHLKPRP,-0.437
14,RRIRARPPRLPRPRPRPASSPRP,0.16
15,RRIRWRPPRLPRPRPRPYVCPRP,-0.00902
16,RRIRSRPPRLPRPRPRPDFYPRP,-0.0521
17,RRIRRRPPRLPRPRPRPVIAPRP,0.654
18,RRIRRRPPRLPRPRPRPHLEPRP,0.0779
19,RRIRGRPPRLPRPRPRPSKWPRP,-0.158
20,RRIRCRPPRLPRPRPRPIGSPRP,-0.139
21,RRIRQRPPRLPRPRPRPPRAPRP,0.552
22,RRIRLRPPRLPRPRPRPPYPPRP,-0.0316
23,RRIRFRPPRLPRPRPRPLQRPRP,0.071
24,RRIRCRPPRLPRPRPRPGKEPRP,-0.0657
25,RRIRMRPPRLPRPRPRPQMRPRP,1

row,Sequence,shrunken log2 fold change
1,RRIRTRPPRLPRPRPRPVNIPRP,-0.136
2,RRIRMRPPRLPRPRPRPDYLPRP,-0.051
3,RRIRTRPPRLPRPRPRPQASPRP,2.4
4,RRIRGRPPRLPRPRPRPDYFPRP,-0.0114
5,RRIRARPPRLPRPRPRPVCRPRP,0.505
6,RRIRDRPPRLPRPRPRPNTFPRP,-0.0294
7,RRIRNRPPRLPRPRPRPRSIPRP,-0.288
8,RRIRFRPPRLPRPRPRPIGVPRP,-0.0194
9,RRIRERPPRLPRPRPRPIGYPRP,-0.00962
10,RRIRWRPPRLPRPRPRPLKNPRP,0.245
11,RRIRPRPPRLPRPRPRPMAHPRP,-0.165
12,RRIRVRPPRLPRPRPRPTDVPRP,0.0418
13,RRIRRRPPRLPRPRPRPRMKPRP,0.309
14,RRIRMRPPRLPRPRPRPCCAPRP,0.78
15,RRIRWRPPRLPRPRPRPEADPRP,1.5
16,RRIRERPPRLPRPRPRPCSWPRP,-0.0335
17,RRIRHRPPRLPRPRPRPVRIPRP,0.0159
18,RRIRTRPPRLPRPRPRPVTIPRP,-0.0419
19,RRIRARPPRLPRPRPRPQWWPRP,0.464
20,RRIRQRPPRLPRPRPRPMRCPRP,0.054
21,RRIRFRPPRLPRPRPRPQEFPRP,0.0412
22,RRIRARPPRLPRPRPRPIDAPRP,0.0272
23,RRIRKRPPRLPRPRPRPQDYPRP,0.118
24,RRIRTRPPRLPRPRPRPLYQPRP,-0.375
25,RRIRKRPPRLPRPRPRPSMGPRP,-0.267

row,Sequence,shrunken log2 fold change
1,RRIRDRPPRLPRPRPRPCDMPRP,-0.0013
2,RRIRDRPPRLPRPRPRPSYYPRP,-0.0757
3,RRIRCRPPRLPRPRPRPGSWPRP,0.439
4,RRIRARPPRLPRPRPRPSTFPRP,0.435
5,RRIRYRPPRLPRPRPRPAFAPRP,-0.0121
6,RRIRARPPRLPRPRPRPGEEPRP,0.999
7,RRIRNRPPRLPRPRPRPHQFPRP,-0.000243
8,RRIRYRPPRLPRPRPRPPTDPRP,-0.181
9,RRIRNRPPRLPRPRPRPISAPRP,-0.0545
10,RRIRYRPPRLPRPRPRPDEKPRP,-0.102
11,RRIRWRPPRLPRPRPRPVKYPRP,-0.632
12,RRIRNRPPRLPRPRPRPVPIPRP,-0.0984
13,RRIRLRPPRLPRPRPRPHVKPRP,-0.333
14,RRIRMRPPRLPRPRPRPDTHPRP,0.18
15,RRIRIRPPRLPRPRPRPFQSPRP,-0.469
16,RRIRCRPPRLPRPRPRPIDNPRP,-0.755
17,RRIRTRPPRLPRPRPRPNSKPRP,-0.848
18,RRIRKRPPRLPRPRPRPKSKPRP,0.45
19,RRIRHRPPRLPRPRPRPCEFPRP,-0.324
20,RRIRLRPPRLPRPRPRPYIQPRP,-0.337
21,RRIRDRPPRLPRPRPRPGAVPRP,0.614
22,RRIRQRPPRLPRPRPRPLAWPRP,0.15
23,RRIRLRPPRLPRPRPRPNIHPRP,-0.621
24,RRIRMRPPRLPRPRPRPFSQPRP,-0.0398
25,RRIRYRPPRLPRPRPRPIFWPRP,0.0187

row,Sequence,shrunken log2 fold change
1,RRIRWRPPRLPRPRPRPIAFPRP,0.171
2,RRIRNRPPRLPRPRPRPSDAPRP,0.0594
3,RRIRHRPPRLPRPRPRPIQPPRP,0.0532
4,RRIRFRPPRLPRPRPRPDPSPRP,-0.323
5,RRIRCRPPRLPRPRPRPRWEPRP,0.342
6,RRIRQRPPRLPRPRPRPPMNPRP,-0.299
7,RRIRPRPPRLPRPRPRPNYNPRP,-0.676
8,RRIRVRPPRLPRPRPRPDLEPRP,-0.0782
9,RRIRQRPPRLPRPRPRPMHKPRP,0.0742
10,RRIRWRPPRLPRPRPRPHRPPRP,-0.135
11,RRIRPRPPRLPRPRPRPSSIPRP,-0.824
12,RRIRKRPPRLPRPRPRPDDSPRP,-0.0813
13,RRIRLRPPRLPRPRPRPIPPPRP,0.0351
14,RRIRLRPPRLPRPRPRPTLSPRP,-0.0659
15,RRIRLRPPRLPRPRPRPKRTPRP,0.21
16,RRIRERPPRLPRPRPRPVNKPRP,-0.31
17,RRIRIRPPRLPRPRPRPLNVPRP,-1.23
18,RRIRRRPPRLPRPRPRPKMPPRP,0.191
19,RRIRGRPPRLPRPRPRPQDIPRP,-0.398
20,RRIRDRPPRLPRPRPRPLRNPRP,0.767
21,RRIRTRPPRLPRPRPRPRSIPRP,-0.122
22,RRIRQRPPRLPRPRPRPCGMPRP,-0.199
23,RRIRIRPPRLPRPRPRPVPFPRP,-0.264
24,RRIRWRPPRLPRPRPRPWVPPRP,0.00582
25,RRIRDRPPRLPRPRPRPVKMPRP,-0.0606
